Source: paper PMC10623405, “CsTT8 regulates anthocyanin accumulation in blood orange through alternative splicing transcription” (Horticulture Research, 2023)

Legend:
[1] = target: CsTT8 (TT8 with the full-length open reading frame) from blood orange 'Tarocco' (Citrus sinensis cv. 'Tarocco' (blood orange))
[2] = target: Δ15-TT8 (alternative splicing transcript of CsTT8 with the fourth exon skipped) (Citrus sinensis cv. 'Tarocco' (blood orange))
[3] = target: CsTT8 (TT8 with the full-length open reading frame) from blood orange 'Tarocco' (Citrus sinensis cv. 'Tarocco' (blood …, UniProt A0A0U4H1K1 1-694)); assay: cell-based or functional assay
Sequence of CsTT8 (TT8 with the full-length open reading frame) from blood orange 'Tarocco' (Citrus sinensis cv. 'Tarocco' (A0A0U4H1K1 entry or part of it): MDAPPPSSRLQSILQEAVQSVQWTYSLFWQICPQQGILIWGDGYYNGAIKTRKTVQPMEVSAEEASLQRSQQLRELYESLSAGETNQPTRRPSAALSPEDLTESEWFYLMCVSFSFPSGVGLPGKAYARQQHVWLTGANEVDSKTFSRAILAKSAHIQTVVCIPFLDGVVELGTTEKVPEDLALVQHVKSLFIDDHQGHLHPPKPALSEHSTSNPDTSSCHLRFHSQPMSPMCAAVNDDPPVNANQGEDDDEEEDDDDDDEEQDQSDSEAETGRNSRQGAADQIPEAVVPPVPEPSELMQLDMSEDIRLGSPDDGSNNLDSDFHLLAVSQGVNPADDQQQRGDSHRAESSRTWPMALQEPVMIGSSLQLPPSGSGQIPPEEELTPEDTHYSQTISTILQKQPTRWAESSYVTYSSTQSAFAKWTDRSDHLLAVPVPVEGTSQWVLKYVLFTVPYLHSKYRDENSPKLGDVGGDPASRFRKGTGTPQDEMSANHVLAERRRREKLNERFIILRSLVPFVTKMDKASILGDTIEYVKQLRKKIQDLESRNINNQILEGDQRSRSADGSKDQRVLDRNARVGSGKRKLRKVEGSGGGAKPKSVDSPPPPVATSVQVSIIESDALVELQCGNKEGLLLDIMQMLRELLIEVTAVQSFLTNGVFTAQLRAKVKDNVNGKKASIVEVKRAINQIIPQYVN

Sequence of Δ15-TT8 (alternative splicing transcript of CsTT8 with the fourth exon skipped) (Citrus sinensis cv. 'Tarocco' (blood orange)) (main, as listed by the source mutant): as the sequence (A0A0U4H1K1 entry or part of it) above

For “MYB5 (an MYB-type transcription factor) from sweet orange (natural protein)”, the dual luciferase reporter with the PH8 promoter in N. benthamiana leaves, effectors TT8 and MYB5, LUC/REN ratio [1] was 0.34 LUC/REN.

B1: RUBY1 (MYB-type transcription factor) from blood orange 'Tarocco' (natural protein, UniProt H6U1F1 1-262, looked up)
chain: MADSLGVRKGAWTGEEDDLLRKCIEKYGEAKWHQVPLRAGLHRCRKSCRLRWLNYLNPNIKRGEFAADEVDLILRLHKLLGNRWSLIVGRLPGRTANDVKNFWNTHLRKKVDKCCKNNKEMKAKAEKVEKINIIKPQPRTFAKNSQWLKGKGMTSNNLQLGDYNLGKQSTPSDHHHHHQQQQENETESVWWESFLFGDELDQQGISSSLSRPEEESTTANIFAEKSPVVTKVTENRVIEAGQSCPTDDFAFDAELWDLLNAK
In the case of B1, the dual luciferase reporter with the F3′H promoter in N. benthamiana leaves, effectors Δ15-TT8 and RUBY1, LUC/REN ratio [2] is reported as 0.042 LUC/REN and the “dual luciferase reporter with the F3′H promoter in N. benthamiana leaves, effectors TT8 and RUBY1, LUC/REN ratio” value [3] is reported as 0.099 LUC/REN.
